This is an account of results in doi:10.1101/2025.07.16.665076, “GPLD1 is as a scavenger carrier mediating lysosomal degradation of extracellular aberrant proteins” (bioRxiv, 2025).

The target in this assay is T1, GPLD1-mCherry-sfGFP-His (GPLD1-RG) (human, UniProt P80108 24-840).
T1 construct: signal peptide in the construct; glycosylphosphatidylinositol-specific phospholipase D1 (GPLD1), human, full length, amplified from HepG2 cDNA; The fusion is said to be 160 kDa; also called GPLD1-RFP-GFP; GPLD1-RG-His; not shown: mCherry, C-terminal, kept; sfGFP, C-terminal, kept; His, C-terminal, kept
T1 sequence (looked up): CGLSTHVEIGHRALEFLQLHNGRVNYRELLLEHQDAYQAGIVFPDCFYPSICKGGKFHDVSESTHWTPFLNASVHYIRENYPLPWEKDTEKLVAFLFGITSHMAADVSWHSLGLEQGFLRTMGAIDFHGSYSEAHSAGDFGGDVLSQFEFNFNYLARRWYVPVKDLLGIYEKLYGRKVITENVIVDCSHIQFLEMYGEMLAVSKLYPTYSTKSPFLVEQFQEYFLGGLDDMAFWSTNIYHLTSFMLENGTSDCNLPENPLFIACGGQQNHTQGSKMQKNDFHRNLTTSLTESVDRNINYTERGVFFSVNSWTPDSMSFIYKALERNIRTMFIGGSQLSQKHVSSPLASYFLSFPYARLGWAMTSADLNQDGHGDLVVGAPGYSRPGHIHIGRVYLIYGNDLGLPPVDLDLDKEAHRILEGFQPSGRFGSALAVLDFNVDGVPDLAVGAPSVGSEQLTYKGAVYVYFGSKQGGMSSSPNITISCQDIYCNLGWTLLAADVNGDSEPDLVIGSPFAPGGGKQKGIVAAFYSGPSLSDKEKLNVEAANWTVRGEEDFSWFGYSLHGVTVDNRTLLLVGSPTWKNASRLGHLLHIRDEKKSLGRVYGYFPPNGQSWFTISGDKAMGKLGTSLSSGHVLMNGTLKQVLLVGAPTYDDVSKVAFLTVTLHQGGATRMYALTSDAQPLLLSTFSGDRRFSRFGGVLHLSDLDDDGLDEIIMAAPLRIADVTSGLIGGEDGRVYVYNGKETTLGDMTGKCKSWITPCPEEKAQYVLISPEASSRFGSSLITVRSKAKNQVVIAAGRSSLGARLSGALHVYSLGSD
The experiment in a line: co-IP; purified RG-tagged protein (GPLD1-RG 40 nM) and ALFA-tagged substrate (His-ALFA-SAA1 500 nM) in PBS, 37°C with shaking for 2 h, aggregates spun out; ALFA nanobody beads at 4°C for 2 h, four washes with PBS; immunoblot. Conditions: both partners purified. On the technique in general: In western blotting, separated proteins are transferred to a membrane and probed.

B1: His-ALFA-SAA1-Full length (SAA1-F) (natural protein, human, UniProt P0DJI8 19-122, looked up)
chain: RSFFSFLGEAFDGARDMWRAYSDMREANYIGSDKYFHARGNYDAAKRGPGGAWAAEVITDARENIQRFFGHGAEDSLADQAANEWGRSGKDPNHFRPAGLPEKY
notes: serum amyloid A1 (SAA1), human, amino acids 19-122; Used in native form in the immunoprecipitation; the purification of the native form is not described; also called native ALFA-SAA1-F (full-length); source: E. coli BL21(DE3) pLysS, recombinant; not shown: His, N-terminal, kept; ALFA, N-terminal, kept
In the case of B1, the binding result was “binds”.

B2: His-ALFA-SAA1-N terminus (SAA1-N) (domain or fragment, human, UniProt P0DJI8 19-94, looked up)
chain: RSFFSFLGEAFDGARDMWRAYSDMREANYIGSDKYFHARGNYDAAKRGPGGAWAAEVITDARENIQRFFGHGAEDS
notes: serum amyloid A1 (SAA1), human, amino acids 19-94: the N-terminal 76 residues, core amyloidogenic fragment; Prepared in 8 M urea-denatured form for all experiments; it aggregates on incubation in PBS; also called His-ALFA-tagged SAA1-N; source: E. coli BL21(DE3) pLysS, purified from inclusion bodies (Co-NTA, 8 M urea), stored in urea; not shown: His, N-terminal, kept; ALFA, N-terminal, kept
B2: the binding result was “binds”.
